Values quoted from earlier work in article PMC4853784.

Biological target: V1b receptor (Homo sapiens) (UniProt P47901)
Test: radioligand

Chain of UniProt P47901 (P47901 whole entry): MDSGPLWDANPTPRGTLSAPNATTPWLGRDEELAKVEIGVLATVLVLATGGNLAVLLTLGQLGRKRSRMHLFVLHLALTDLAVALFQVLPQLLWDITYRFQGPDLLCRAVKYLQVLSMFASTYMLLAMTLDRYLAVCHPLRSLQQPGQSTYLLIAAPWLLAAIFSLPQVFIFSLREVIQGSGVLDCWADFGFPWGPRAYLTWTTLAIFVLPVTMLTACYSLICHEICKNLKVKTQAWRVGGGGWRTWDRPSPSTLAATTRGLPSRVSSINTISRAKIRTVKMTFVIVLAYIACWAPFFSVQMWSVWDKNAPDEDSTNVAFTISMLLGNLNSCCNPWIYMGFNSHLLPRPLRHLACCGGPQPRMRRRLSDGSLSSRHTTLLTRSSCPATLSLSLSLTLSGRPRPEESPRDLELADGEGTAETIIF

For vasopressin (from UniProt P01185), the Kd is given as 1.8 nM.
